Results on 21 sequences are retold here after the DeepSol protein solubility set.

The nature of this data set: soluble on expression in E. coli; label from the status in PepcDB or PDB records.
For “MGHHHHHHSHMDRWSAGTLENSILNAYLHTIRGSQHFLYIENQFFISCSDGRTVLNKVGDEIVDRILKAHKQGWCYRVYVLLPLLPGFEGDISTGGGNSIQAILHFTYRTLCRGEYSILHRLKAAMGTAWRDYISICGLRTHGE”, the “soluble on expression in E. coli” value is given as “soluble”.

Turning to “ASFPFGDFTADTKGTSDIAYSFRNDISGTGGLIKKGGSQLQLHGNNTYTGKTIIEGGSLVLYGNNKSDMRVETKGALIYNGAASGGSLNSDGIVYLADTDQSGANETVHIKGSLQLDGKGTLYTRLGKLLKVDGTAIIGGKLYMSARGKGAGYLNSTGRRVPFLSAAKIGQDYSFFTNIETDGGLLASLDSVEKTAGSEGDTLSYYVRRGNAARTASAAAHSAPAGLKHAVEQGGSNLENLMVELDASESSATPETVETAAADRTDMPGIRPYGATFRAAAAVQHANAADGVRIFNS”, the “soluble on expression in E. coli” value is “not soluble”.

Turning to “MLKLSKIVLISSLLVLVQQISYAKIGGFELIVNVPIGAGITLVNKNVSVAGNPKLGGNFQIGLEANIGYMFQIMDNMGVSLLGSLGYDFTGFSYSKNNNTENYKNTVHDIYRFLS”, the “soluble on expression in E. coli” value was “not soluble”. Then “MGEKAFKRPNVLSTIGAFGYRAAVFRNVLEAAKLDPSIYYTFISGPEIDPEQFSKVPENVEFTGFTENPFPYYKGSDLVITAGGHGTIMESLAFGLPILSFPDEKHAEQENNASVLEEAGYGKRMSYLTPPEVILACIREIFEDENYSKKTRRLMELAEVLEHHHHHH”, with “soluble”. Then “MLTYQVKQGDTLNSIAADFRISTAALLQANPSLQAGLTAGQSIVIPGLPDPYTIPYHIAVSIGAKTLTLSLNNRVMKTYPIAVGKILTQTPTGEFYIINRQRNPGGPFGAYWLSLSKQHYGIHGTNNPASIGKAVSKGCIRMHNKDVIELASIVPNGTRVTINR”, with “soluble”; and “KGLDKWGIYVPESAAQSVKDAVFEAGAGAIGDYSQCSFEWQGTGQFLPHHNAQPVVGHPGQLERTEELRVEFVAPARLRTTLIDAIRAAHPYEEPAFDVVSMQSTQDLETAEGLGRVGTLPEPMRFGDFVQQVADALPETSWGIRAAGDPEQMVHTVAVSSGSGDSFLDAVAALGVDVYVTSDLRHHPADESRRAQGPLLIDTAHWASEFPWTYQVQELLAQEFAQLDVEVATLRTDPWNISAHPQLR”, with “not soluble”; and “MCDTLILRHQGQTWFAKNSDREPAEPQRLLRLPAVRNDPEARLRTTYLDIPQTAQRHALVISQPSWIWGAEMGVNEHGVAIGNEAVFTKLTRQRGTALLGMDLLRLGLERGASAREALEVITGLLQRYGQGGPAGYRDKRIRYDNSFLIADPGEAWVLETAGNLWAAKKVERWAISNALTLGHEFDLCSRDLEDQARRQGCWDGRGDFHFARVFDTRLLPWVGGAHRRCRINQRFLDSLPGEPDWHALFAALRHHGPRGDHFRRHNNRQVCMHAGSFWRPSQTTASLVARLRDDGPLLAATGTSAPCLGLFQPLSFDPASGAAVLSQPREAVQESPWWRFEAVHRRALTDRAFRRLLRSGRDWLERELFADLEQPDWPRLAEDAAAWHACWHDQVAMQPLAQQRWWRSHAALAAALEHHHHHH”, with “not soluble”. Regarding “GPGSMPPSQTVEYEEDFGHNLMIHREYISKRCRDRVSFELSALSYSNLELRRGQEHLAGIMNRERRGVSVGASGAPDDQVQMQTDVDANSREVLSARYLFNERRLQFCDRFQNFFQSKLENSAASDSNGHEKQHLFSLMEACAVIFGCETEAARETYYRMFLGLDSETLLEEDEALRNRIADAKLVQRVLENNKGRQEVTQSPKLQQQQDQGKPLHAVSSGTSLLNDCEEERFISSIPELSLFEDETEARANGFVEGEDDVKANNGDLTAGSFSSPASSVNLPEEFEEYAPLYKAYITHAVGKGPVASYDISTLGSTGLTAERRRWRTLMEKIVREDYHTMTEVEQMDAIVLNEQLHTVKFFDLKIGDAIRDILQLLQRETGVGSSVNRDTPVGISPNNPERRV”, the “soluble on expression in E. coli” value is on record as “not soluble”.

“MGSDKIHHHHHHMRDNMSRLEDLEAFIHIAESGSLTRAATRLNRSLQAVSRSLTSLEVDVGLQLVHRTTRHSALSEAGQAFYRRVKPAVLEIREAQLEAAGRRTGPSGILRVGAPMLFGPDFLVPIVAEYIESYPQAEVDLSLTDAFVDLASKGIDVVVRIADLPDSNLQSKRLGALRRVVFGAPSYFARNGRPEHPAELRQHACIVRTIGNRPGQWAFQIDGKRRMVGVRGSFRSNAMAAIYSAVRSGLGLGYSPLWQIRHLVDAGQVEIVLQEFEPKPVPIHALWQESTRPPAKVRAFVDLLAMRLRLDDL”: the “soluble on expression in E. coli” value was “not soluble”. Then “MNFENDDIIHAPTTSSLILEERHDSELFRVYALILDGITDQVLLPGKKLTESELCRQMVCSRNTVRGALSLLAHDKIVDLQPNRGAFVHVPDLKEMQDVFNARIEMETMILNILADLPDLETRLKPLYAMIRREEEASGRGDRVGWNRLSNAFHVELARLVGNDVLFDIMNTLCARSSLIVAVAGVHREEKHAINTHTHSEHREILDLLLAGRRNRVVKILRRHLGNCMERLEKTLED”, with “not soluble”; and “LYKKAGLMVDKKLVVVFGGTGAQGGSVARTLLEDGTFKVRVVTRNPRKKAAKELRLQGAEVVQGDQDDQVIMELALNGAYATFIVTNYWESCSQEQEVKQGKLLADLARRLGLHYVVYSGLENIKKLTAGRLAAAHFDGKGEVEEYFRDIGVPMTSVRLPCYFENLLSHFLPQKAPDGKSYLLSLPTGDVPMDGMSVSDLGPVVLSLLKMPEKYVGQNIGLSTCRHTAEEYAALLTKHTRKVVHDAKMTPEDYEKLGFPGARDLANMFRFYALRPDRDIELTLRLNPKALTLDQWLEQHKGDFNLL”, with “soluble”. The entry for “MGHHHHHHSHMATSRYEPVAEIGVGAYGTVYKARDPHSGHFVALKSVRVPNGGGGGGGLPISTVREVALLRRLEAFEHPNVVRLMDVCATSRTDREIKVTLVFEHVDQDLRTYLDKAPPPGLPAETIKDLMRQFLRGLDFLHANCIVHRDLKPENILVTSGGTVKLADFGLARIYSYQMALTPVVVTLWYRAPEVLLQSTYATPVDMWSVGCIFAEMFRRKPLFCGNSEADQLGKIFDLIGLPPEDDWPRDVSLPRGAFPPRGPRPVQSVVPEMEESGAQLLLEMLTFNPHKRISAFRALQHSYLHKDEGNPE” is “not soluble”; for “MPGLLLCEPTELYNILNQATKLSRLTDPNYLCLLDVRSKWEYDESHVITALRVKKKNNEYLLPESVDLECVKYCVVYDNNSSTLEILLKDDDDDSDSDGDGKDLVPQAAIEYGRILTRLTHHPVYILKGGYERFSGTYHFLRTQKIIWMPQELDAFQPYPIEIVPGKVFVGNFSQACDPKIQKDLKIKAHVNVSMDTGPFFAGDADKLLHIRIEDSPEAQILPFLRHMCHFIEIHHHLGSVILIFSTQGISRSCAAIIAYLMHSNEQTLQRSWAYVKKCKNNMCPNRGLVSQLLEWEKTILGDSITNIMDPLY” it is “soluble”. The entry for “SEKANALFETIFMENIMASPIAQTYMGIKQDYDKWDEIGDEADALELARTQKQLAEINQLDASKLDPQTRLSLALLTQNLNNDIKDYQWRYHTYPVNQMRGGHSMIASFLINQHQITDVSDAKAYISRLNGVPKRLTQLQKALEVRAEKGIIAPKFVFGYVISDSQNILKGAPFDKNEDSALLADFRKKVKALSIPETEKAPLIAEAEKALTSQVAPAYKALISYIKTLEAKADTRDGVWKLPDGDAFYNNALARTTTTDMTADEIHQLGLAEVERIHNEMRAIMKKVHFNGTLQAFFAFMRNNPQFYYPNTPEGKAAYLADATQLIDNMHSRLDEVFKVKPKAAMIVKQVESFREKSAGKAFYEQPAPDGSRPGSYYANLYDMKAMPKYQMEALAYHEGIPGHHMQIAISQELKDIPKFRKFGGYTAYIEGWGLYSESFPKEMGLYADPYSDFGRLAMELWRACRLVVDTGIHAKKWTREQGIAYYVDNTPNAKSDAVKMVERHIVMPSQATAYKVGMIKLLELRHKAEKQLGDKFDIRDFHTLILANGALPLDVLEEHVNQWIASVNK” is “not soluble”. As to “MPVKLATALSNNLFPALDSQLRAGRHIGIEELENHVFLMDFQEVLEEFYSRYNVELIRAPEGFFYLRPRSTTLIPRSVLSELDMMVGKILCYLYLSPERLAHEGIFSQQELYEELLSLADESKLLKLVNQRSTGSDLDRQKLQEKVRTSLNRLRRLGMIYFMGNDSSKFRITESVFRFGADVRSGDDAREAQLRMIRDGEAMPVEGSLSLKDDSDDNDRTDDTAPETGEDELEHHHHHH”, the “soluble on expression in E. coli” value was “not soluble”. Then “MSLKKQPLAYRMRPSNIDEVIGQQHLVGEGKIIRRMVDAGQLSSMILYGPPGVGKTSIAQAIAGSTDTHYKLLNAVVNNKKDMEIVVEEAKMSGQLILILDEVHRLDKGKQDFLLPHLEKGLLILIGATTANPFHSINPAIRSRCQIFELTPLTTDEIKVALTRALTDKTHGLGEEPVVISDEALAHFAFACGGDVRSALNGLELAVRSTQPNVKGEKEITLSVAEECIQRKSFHHDKDGDAHYDVLSAFQKSIRGSDVNAALHYLARLIEAGDLVSIGRRLLVIAYEDIGLANPQAGPRTLAAIEAAERLGFPEGRIPLANAVVELCLSPKSNSAYVALDAAIADIRKGHVGSVPAHLKDAHYKGAEQLGRGIGYKYPHDYERGWVKQQYLPDSLKSRAYYEPKRTGKFEDALADVYEKLRKSTFSEGHHHHHH”, with “soluble”; and “SLGHWQLASKPTVLKGLPASTGVAIGEFWFDNTQPSLSDVFPSSTLDKEREQELLLVAIERALNDFRRMRKKFDSEINKDALAIFDLFTHLLNDPMLRGDLKKQIEKGDRADWALRQVVETYSNRFARMSDVYLRERAQDIRELGQRLLYFLHNSEQENAAIDRPIILVANELTATLLASVPKEHLLAVVSLEGGANSHAAILSRALGVPAVMGANINTDVVNGKLGIVDGYTGEIFLEPNRQLLREYRSLVSEESELFAMVNKDLA”, with “not soluble”. As to “GHPTLKTPESVTGTWKGDVKIQCIYDPLRGYRQVLVKWLVRHGSDSVTIFLRDSTGDHIQQAKYRGRLKVSHKVPGDVSLQINTLQMDDRNHYTCEVTWQTPDGNQVIRDKIIELRVRK”, the “soluble on expression in E. coli” value was “soluble”.

With “MTEKTTVKTLKDVVVRFCGDSGDGMQLTGTIFSDLSAVFGNTISTFPDYPAEIRAPQGTLGGVSGFQVHIGTDLVRTPGDLADVLVAMNPAALKVNRTHVRRDSIIIIDSDSFMASDLEKAEIASEDFMTELGLTTQELFTVPISSMVKKSTAEFGLDVKAALRCKNMFALGLVCWLFDRPTQHAIDYLNRKFGKKEAILNANIKALADGFNYGHNTHATATTYRIEGRKQTPGVYMDISGNKATAYGLVAAAEHANLNL”, the “soluble on expression in E. coli” value is recorded as “soluble”. As to “GSDITSLYKKAGSEMNGPRCPVQTVGQWLESIGLPQYENHLMANGFDNVQFMGSNVMEDQDLLEIGILNSGHRQRILQAIQLLPKMRPIGHDGYHPTSVAEWL”, the “soluble on expression in E. coli” value is given as “soluble”.

As to “MEKVEHLNLNIQNILEDVDIDTASSSSDDEPEQAVVKQEKLEAGEQIEEQYDTDSDYDDDIVEFAEATGDFTKKLNAARLNTIGPNAARNRLTVDVERHADTSEDRKRKRVKDRADRATVEQVLDPRTRLVLFRLLQRGTLLNIDGCISTGKEANVYHATGTDNDLAIKIYKTSILTFKDRERYVTGEFRYRHGYCKSNPRKMVAVWAEKEMRNLARMHEVGLPVPKPHLLKGHVLVMDFLGKDGWPAPLLKNANLSQEDAEPMYVGLVRDMRRLYRECKLVHADLSEFNMLVHDGKLWIIDVSQSVEQDHPHALEFLRMDCNNVNKFFRELGVPVLSVRRLFEVIVDPLMSSKEMETIIEEERVLVNSEDDSLFMNAFIPHKLEHVLHFERDGKLAKEGVEANNPFQNIVSKIDLKGDGFGEEHDDSDDNDDEENGKKSRKKRAEPTEEEIQEKERKIAMHTRNREETAEERKERKAAVKEEKREQRKEKIPKHLKKRAHRQHMKYQSSPWSTLINCLHTLVP”, the “soluble on expression in E. coli” value is listed as “not soluble”.
